The target in experiment [1] is whole Zika virus (ZIKV) virion (Zika virus). Description: whole ZIKV virion ELISA, 5-fold dilutions from 100 ug/ml. In general terms: ELISA stands for enzyme-linked immunosorbent assay.
For experiment [2] the target is unchanged. The experiment is described as follows: whole ZIKV virion ELISA; molar conversion with IgM ~970 KDa.
In experiment [3] the target is Dengue virus serotype 3 virion (Dengue virus serotype 3). The experiment is described as follows: cell-based or functional assay.
Experiment [4] deals with Dengue virus serotype 2 virion (Dengue virus serotype 2). The experiment is described as follows: cell-based or functional assay.
The target in experiment [5] is whole Zika virus (ZIKV) virion (Zika virus). Description: cell-based or functional assay.
Experiment [6] concerns the target Dengue virus serotype 1 virion (Dengue virus serotype 1). Description: cell-based or functional assay.
Experiment [7] addresses Dengue virus serotype 4 virion (Dengue virus serotype 4). The experiment is described as follows: cell-based or functional assay.
Experiment [8] addresses whole Zika virus (ZIKV) virion (Zika virus). The experiment is described as follows: cell-based or functional assay. The source holds these as a separate data set.
For experiment [9] the target is unchanged. The experiment is described as follows: whole ZIKV virion ELISA; molar EC50 of IgM compared with IgG.
For experiment [10] the target is unchanged. Description: whole ZIKV virion ELISA; molar conversion with IgG ~150 KDa.

The text below walks through data of US12570725.

Where “and” joins values, the source holds several entries; their conditions need not be identical. Identical values can stand only once. Like-named read-outs stand apart in the source and are kept apart here. Bounds are passed on as bounds.

By EC50 is commonly meant the concentration that produces a half-maximal response.

B1: DH1017.IgM (antibody, V domains shown)
VH: QVQLQESGPGLVKPSQTLSLTCAVSGGSISSGDSYWSWIRQHPGKGLEWIGSIYYSGSTYYNPSLKSRVTIPIDTSKNQFSLKLSSVTAADTAVYYCARHVGDLRVNDAFDIWGQGTMVTVSS
VL: QSVLTQPPSVSAAPGQKVTISCSGSSSNIGNNFVSWYQRLPGTPPKLLIYDSDKRPSGIPDRFSGSKSGTSATLGITGLQTGDEGDYYCGTWDRSLSVVVFGGGTKLTVL
Turning to B1, the concentration giving a half-maximal response (EC50) in [1] was 0.046 µg/mL; in experiment [2], 0.474 nM. The FRNT50 in [3] is over 5 µg/mL; in experiment [4] it was over 5 µg/mL; in [5], 6.57 ng/mL; in experiment [6], over 5 µg/mL; in experiment [7], over 5 µg/mL; in [8] it was 24.7 ng/ml and 25.5 pM. Besides, the fold difference in neutralizing activity, IgM versus IgG at equal numbers of molecules in experiment [8] turned out to be 40 fold. Further, the fold difference of molar EC50 against DH1017.IgG in experiment [9] was determined as 6 fold.

B2: DH1017.IgG (antibody, V domains shown)
VH: B1 VH
VL: B1 VL
Consider B2, for which the EC50 in experiment [1] came out at 0.045 µg/mL; in [10], 3 nM.
